Experimental data reported in patent US10081665B2, “Peptides and combination of peptides for use in immunotherapy against various tumors” (immatics biotechnologies GmbH, priority 2015, dated 2018).

How the values were obtained:
[1] = tested on: CD8+ T cells; assay: In vitro immunogenicity: T-cell priming with aAPCs loaded with peptide/MHC complexes and anti-CD28, pMHC multimer readout; assay type: cell-based, human; conditions: for Wells positive [%]: in vitro immunogenicity, HLA-A*02 restricted peptides, percentage of positive wells and donors (among evaluable); for in vitro immunogenicity: donors: positive donors; for in vitro immunogenicity: donors / in vitro immunogenicity: wells: CD8+ T cells of healthy HLA-A*02 donors, three stimulation cycles, multimer staining; for in vitro immunogenicity: wells: positive wells
Source text: In order to obtain information regarding the immunogenicity of the TUMAPs of the present invention, the inventors performed investigations using an in vitro T-cell priming assay based on repeated stimulations of CD8+ T cells with artificial antigen presenting cells (aAPCs) loaded with peptide/MHC complexes and anti-CD28 antibody.
In order to perform in vitro stimulations by artificial antigen presenting cells loaded with peptide-MHC complex (pMHC) and anti-CD28 antibody, the inventors first isolated CD8+ T cells from fresh HLA-A*02 leukapheresis products via positive selection using CD8 microbeads (Miltenyi Biotec, Bergisch-Gladbach, Germany) of healthy donors obtained from the University clinics Mannheim, Germany, after informed consent. PBMCs and isolated CD8+ lymphocytes were incubated in T-cell medium (TCM) until use consisting of RPMI-Glutamax (Invitrogen, Karlsruhe, Germany) supplemented with 10% heat inactivated human AB serum (PAN-Biotech, Aidenbach, Germany), 100 U/ml Penicillin/100 μg/ml Streptomycin (Cambrex, Cologne, Germany), 1 mM sodium pyruvate (CC Pro, Oberdorla, Germany), 20 μg/ml Gentamycin (Cambrex). 2.5 ng/ml IL-7 (PromoCell, Heidelberg, Germany) and 10 U/ml IL-2 (Novartis Pharma, Nürnberg, Germany) were also added to the TCM at this step. Generation of pMHC/anti-CD28 coated beads, T-cell stimulations and readout was performed in a highly defined in vitro system using four different pMHC molecules per stimulation condition and 8 different pMHC molecules per readout condition.
The purified co-stimulatory mouse IgG2a anti human CD28 Ab 9.3 (Jung et al., 1987) was chemically biotinylated using Sulfo-N-hydroxysuccinimidobiotin as recommended by the manufacturer (Perbio, Bonn, Germany). Beads used were 5.6 μm diameter streptavidin coated polystyrene particles (Bangs Laboratories, Illinois, USA).
pMHC used for positive and negative control stimulations were A*0201/MLA-001 (peptide […] (SEQ ID NO. 289) from modified Melan-A/MART-1) and A*0201/DDX5-001 ([…] from DDX5, SEQ ID NO. 290), respectively.
800,000 beads/200 μl were coated in 96-well plates in the presence of 4×12.5 ng different biotin-pMHC, washed and 600 ng biotin anti-CD28 were added subsequently in a volume of 200 μl. Stimulations were initiated in 96-well plates by co-incubating 1×10^6 CD8+ T cells with 2×10^5 washed coated beads in 200 μl TCM supplemented with 5 ng/ml IL-12 (PromoCell) for 3 days at 37° C. Half of the medium was then exchanged by fresh TCM supplemented with 80 U/ml IL-2 and incubating was continued for 4 days at 37° C. This stimulation cycle was performed for a total of three times. For the pMHC multimer readout using 8 different pMHC molecules per condition, a two-dimensional combinatorial coding approach was used as previously described (Andersen et al., 2012) with minor modifications encompassing coupling to 5 different fluorochromes. Finally, multimeric analyses were performed by staining the cells with Live/dead near IR dye (Invitrogen, Karlsruhe, Germany), CD8-FITC antibody clone SK1 (BD, Heidelberg, Germany) and fluorescent pMHC multimers. For analysis, a BD LSRII SORP cytometer equipped with appropriate lasers and filters was used. Peptide specific cells were calculated as percentage of total CD8+ cells. Evaluation of multimeric analysis was done using the FlowJo software (Tree Star, Oreg., USA). In vitro priming of specific multimer+CD8+ lymphocytes was detected by comparing to negative control stimulations.

[2] = molecular target: HLA-A*02:01 (Homo sapiens, UniProt P04439, D140Y/D185E/D98H/E176V/E277Q/G131W/G231S/I119V/I121R/I166T/I218V/L300P/L318F/N151K/N90K/P208A/P217A/Q86G/Q94H/R138H/R169H/T345S); assay: MHC binding assay (UV-ligand exchange, beta2m ELISA); conditions: binding to HLA-A*02:01, β2m ELISA
In short: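 Peptide-MHC complexes made by UV-ligand exchange of a UV-cleavable peptide for test peptide; exchange yield measured by β2m ELISA on streptavidin-coated plates with samples diluted 100-fold, HRP anti-β2m and TMB read at 450 nm. Refolded HLA-A*02:01/MLA-001 monomers (15-500 ng/ml) served as standards.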

Peptide exchange (MHC class I binding score, peptide exchange yield) [2]	Substance	Wells positive [%] [1]	in vitro immunogenicity: donors [1]	in vitro immunogenicity: wells [1]
++ (≥20% = ++)	157 (ILQDGQFLV; listed as Homo sapiens) [compound 157]	+ (<20% = +)		
+++ (≥50 = +++)	82 (ILAEEPIYIRV; listed as Homo sapiens) [compound 82]	+++ (50%-69% = +++)		
++ (≥20% = ++)	66 (AMFPDTIPRV; listed as Homo sapiens) [compound 66]	+ (<20% = +)		
+++ (≥50 = +++)	246 (ALAGIVTNV; listed as Homo sapiens) [compound 246]	+ (<20% = +)		
+++ (≥50 = +++)	260 (ALNESLVEC; listed as Homo sapiens) [compound 260]	+ (<20% = +)		
+++ (≥50 = +++)	183 (ALSYILPYL; listed as Homo sapiens) [compound 183]	+++ (50%-69% = +++)		
+++ (≥50 = +++)	233 (SLFESLEYL; listed as Homo sapiens) [compound 233]	+ (<20% = +)		
+++ (≥50 = +++)	89 (SLAETIFIV; listed as Homo sapiens) [compound 89]	+ (<20% = +)		
+++ (≥50 = +++)	39 (YLEDGFAYV; listed as Homo sapiens) [compound 39]	++++ (>=70% = ++++)		
++ (≥20% = ++)	35 (VIIKGLEEI; listed as Homo sapiens) [compound 35]	+ (<20% = +)		
+++ (≥50 = +++)	97 (KLFEKSTGL; listed as Homo sapiens) [compound 97]	+ (<20% = +)		
+++ (≥50 = +++)	102 (GLYPVTLVGV; listed as Homo sapiens) [compound 102]	+ (<20% = +)		
+++ (≥50 = +++)	101 (SLLEVNEASSV; listed as Homo sapiens) [compound 101]	+ (<20% = +)		
++ (≥20% = ++)	18 (KTASINQNV; listed as Homo sapiens) [compound 18]	+++ (50%-69% = +++)		
+++ (≥50 = +++)	267 (YLLDMPLWYL; listed as Homo sapiens) [compound 267]	+ (<20% = +)		
++ (≥20% = ++)	128 (SILTNISEV; listed as Homo sapiens) [compound 128]			
+++ (≥50 = +++)	167 (LVVDEGSLVSV; listed as Homo sapiens) [compound 167]			
++ (≥20% = ++)	198 (ILTNKVVSV; listed as Homo sapiens) [compound 198]			
++ (≥20% = ++)	115 (ILHGEVNKV; listed as Homo sapiens) [compound 115]			
++ (≥20% = ++)	137 (KLIYKDLVSV; listed as Homo sapiens) [compound 137]			
++ (≥20% = ++)	252 (SLMEKNQSL; listed as Homo sapiens) [compound 252]			
+++ (≥50 = +++)	204 (SEWGSPHAAVP; listed as Homo sapiens) [compound 204]			

Continued, substance first:

Substance	Peptide exchange (MHC class I binding score, peptide exchange yield) [2]	Wells positive [%] [1]	in vitro immunogenicity: donors [1]	in vitro immunogenicity: wells [1]
255 (FLMKNSDLYGA; listed as Homo sapiens) [compound 255]	+++ (≥50 = +++)	+ (<20% = +)		
34 (TLNTLDINL; listed as Homo sapiens) [compound 34]	+++ (≥50 = +++)	++++ (>=70% = ++++)		
9 (SLITGQDLLSV; listed as Homo sapiens) [compound 9]	+++ (≥50 = +++)	+ (<20% = +)		
203 (FLFVDPELV; listed as Homo sapiens) [compound 203]	++ (≥20% = ++)	+++ (50%-69% = +++)		
288 (SLYKGLLSV; listed as Homo sapiens) [compound 288]			++++ (>= 70% = ++++)	++ (21%-49% = ++)
236 (KMSELQTYV; listed as Homo sapiens) [compound 236]	+++ (≥50 = +++)	+ (<20% = +)		
121 (ALYVQAPTV; listed as Homo sapiens) [compound 121]	++ (≥20% = ++)	+ (<20% = +)		
27 (GLLGKVTSV; listed as Homo sapiens) [compound 27]	+++ (≥50 = +++)	+ (<20% = +)		
254 (ALGDKFLLRV; listed as Homo sapiens) [compound 254]	++ (≥20% = ++)	+ (<20% = +)		
287 (KIQEILTQV; listed as Homo sapiens) [compound 287]			+++ (50%-69% =+++)	+ (<20% = +)
50 (ILLSVLHQL; listed as Homo sapiens) [compound 50]	+++ (≥50 = +++)	+ (<20% = +)		
77 (ALYGNVQQV; listed as Homo sapiens) [compound 77]	+++ (≥50 = +++)	+ (<20% = +)		
242 (KLQEEIPVL; listed as Homo sapiens) [compound 242]	+++ (≥50 = +++)	+ (<20% = +)		
17 (GLLPSAESIKL; listed as Homo sapiens) [compound 17]	++++ (≥75% = ++++)	+ (<20% = +)		
29 (KMISAIPTL; listed as Homo sapiens) [compound 29]	++ (≥20% = ++)	+ (<20% = +)		
75 (ALLDGALQL; listed as Homo sapiens) [compound 75]	+++ (≥50 = +++)			
194 (KLLEEVQLL; listed as Homo sapiens) [compound 194]	++ (≥20% = ++)			
165 (SLLDYEVSI; listed as Homo sapiens) [compound 165]	+++ (≥50 = +++)			
6 (FLNAIETAL; listed as Homo sapiens) [compound 6]	++++ (≥75% = ++++)			
